From US8609357B2, “Methods for detecting LP-PLA2 activity and inhibition of LP-PLA2 activity” (Glaxo Group Limited, priority 2004, dated 2013)
Values joined by “and” are separate entries in the source; they are usually repeats but may differ in a detail not shown here. Identical values can stand only once.

Experiments:
[1] = Plasma level of inhibitor in clinical studies (pharmacokinetics); details: human subjects, administered in vivo
[2] = target: T1, Lp-PLA2 (Homo sapiens, UniProt Q13093); assay: Auto PAF AH assay (Azwell kit, Olympus Au640); format: biochemical
T1 construct: Unless otherwise indicated all plasma samples were collected from human and are human plasma; from tissue; host or cells: human blood plasma (EDTA)
T1 sequence (Q13093 22-441): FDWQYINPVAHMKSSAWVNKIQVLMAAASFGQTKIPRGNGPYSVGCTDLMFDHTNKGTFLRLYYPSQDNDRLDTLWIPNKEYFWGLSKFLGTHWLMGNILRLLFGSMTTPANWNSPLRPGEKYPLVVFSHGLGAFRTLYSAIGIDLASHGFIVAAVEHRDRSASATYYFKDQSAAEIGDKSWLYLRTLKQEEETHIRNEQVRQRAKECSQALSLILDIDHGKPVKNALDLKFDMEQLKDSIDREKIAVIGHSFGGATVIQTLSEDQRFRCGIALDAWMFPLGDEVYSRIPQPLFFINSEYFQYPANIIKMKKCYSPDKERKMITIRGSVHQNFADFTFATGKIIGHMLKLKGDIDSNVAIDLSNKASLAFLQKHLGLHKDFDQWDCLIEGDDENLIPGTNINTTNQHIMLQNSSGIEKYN
Description: The Auto PAF AH assay kit, manufactured by Azwell (Osaka, Japan), is commercially available in the United States through Karlan Research Products Corporation (Santa Rosa, Calif.).
Azwell Auto PAF-AH Assay Kit:
Prepare the following reagents: • R1: Use this buffer solution as supplied in Azwell Auto PAF AH assay kit. Store at 4° C. Protect from light. • R2: Prepare the R2 working solution by mixing R2A and R2B (supplied in Azwell Auto PAF AH assay kit) in the proportion of 19:1. Store at 4° C. Protect from light. • 3. […] Briefly centrifuge to spin down fibrin clots/particles in the plasma. • 4. Place Sarstedt tubes containing plasma samples onto sample tubes that fit the instrument. Run plasma samples through the Au640 analyzer. After choosing the PAF AH assay program, the analytical procedure described below is performed automatically: • Test sample (2 μL)+R1 (240 μL), 37° C., 5 minutes [0-5 minutes] • Add R2 (80 μL), 37° C., 5 minutes [5-10 minutes] • Measure the absorbance at 410 nm and 480 nm [6-8 minutes] • Calculate PAF AH activity (IU/L) • 5.

[3] = target: T2, recombinant human Lp-PLA2 protein (hrLp-PLA2) (Homo sapiens, UniProt Q13093); assay: Modified colorimetric assay of recombinant human Lp-PLA2 protein (dynamic range); format: biochemical; details: for Activity (assay dynamic range): hrLp-PLA2 14.6-3750 ng/ml, […] substrate/45 μL
T2 construct: made in house
T2 sequence (Q13093 22-441): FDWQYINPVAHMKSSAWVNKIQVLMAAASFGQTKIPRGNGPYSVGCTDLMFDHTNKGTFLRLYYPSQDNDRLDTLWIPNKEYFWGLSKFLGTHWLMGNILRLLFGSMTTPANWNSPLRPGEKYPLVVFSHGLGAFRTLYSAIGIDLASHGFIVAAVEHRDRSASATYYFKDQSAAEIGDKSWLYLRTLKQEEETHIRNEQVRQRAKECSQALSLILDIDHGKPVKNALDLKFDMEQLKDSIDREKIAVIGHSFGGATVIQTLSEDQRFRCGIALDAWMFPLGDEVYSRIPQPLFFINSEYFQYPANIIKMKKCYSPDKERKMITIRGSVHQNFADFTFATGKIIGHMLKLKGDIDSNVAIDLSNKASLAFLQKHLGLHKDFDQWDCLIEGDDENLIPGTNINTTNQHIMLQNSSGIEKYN
Description: (§1) Assay dynamic range was defined by using both recombinant human Lp-PLA2 protein (hrLp-PLA2) generated in-house and Lp-PLA2 protein purified from human plasma in-house.
hrLp-PLA2 was serially diluted and 25 μL of each diluted hrLp-PLA2 were assayed by a modified drug-sensitive colorimetric assay (data shown in Table 10). […]. (see Table 10).
[…]. Therefore, such conditions with lower substrate concentration and higher sample volume could be used when higher measurable in vivo inhibition is desired while the range of Lp-PLA2 activity for test samples is limited or could be compromised. […]. Earlier and shorter reaction time could be considered to use in activity calculation to improve assay dynamic range when such conditions are used.

[4] = target: T3, hLp-PLA2 purified from plasma (Homo sapiens, UniProt Q13093); assay: Modified colorimetric assay of Lp-PLA2 purified from human plasma (dynamic range); format: biochemical
T3 construct: Lp-PLA2 protein purified from human plasma in-house; from tissue; host or cells: human plasma, purified in-house
T3 sequence (Q13093 22-441): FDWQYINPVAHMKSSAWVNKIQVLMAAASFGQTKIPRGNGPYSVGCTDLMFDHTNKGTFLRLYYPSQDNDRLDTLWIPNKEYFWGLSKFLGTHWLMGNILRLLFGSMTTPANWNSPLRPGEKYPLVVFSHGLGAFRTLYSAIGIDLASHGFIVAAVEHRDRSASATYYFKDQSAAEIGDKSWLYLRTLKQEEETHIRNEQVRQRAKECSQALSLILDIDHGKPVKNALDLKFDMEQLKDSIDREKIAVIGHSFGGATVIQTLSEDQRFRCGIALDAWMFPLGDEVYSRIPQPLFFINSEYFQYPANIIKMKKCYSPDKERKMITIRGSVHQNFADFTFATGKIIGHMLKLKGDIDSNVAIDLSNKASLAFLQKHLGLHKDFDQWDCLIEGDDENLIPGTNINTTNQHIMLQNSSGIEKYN
Description: as §1
hLp-PLA2 purified from plasma was also serially diluted and 25 pt of each dilution were assayed by a modified drug-sensitive colorimetric assay (data shown in Table 11). […] The relatively lower upper limit of the dynamic range determined by purified hLp-PLA2 may be resulted from interference factors possibly present in the purified product and/or introduced during purification process. Limited availability of such purified protein prevents further investigation.

Question: With `CCN(CC)CCN(Cc1ccc(-c2ccc(C(F)(F)F)cc2)cc1)C(=O)Cn1c(SCc2ccc(F)cc2)nc(=O)c2c1CCC2` [Formula II, 1-(N-(2-(Diethylamino)ethyl)-N-(4-(4-trifluoromethylphenyl)benzyl)-aminocarbonylmethyl)-2-(4-fluorobenzyl)thio-5,6-trimethylenepyrimidin-4-one bitartrate] as the molecule, how does the peak plasma level [1] read?
Answer: The peak plasma level was 90 ng/mL.

Question: Which “drug inhibition by Auto PAF AH assay” value ([2]; four subjects, 80-240 mg in vivo) does the source give for `COCCN1CCC(N(Cc2ccc(-c3ccc(C(F)(F)F)cc3)cc2)C(=O)Cn2c(SCc3cccc(F)c3F)cc(=O)c3ccccc32)CC1` [Formula I] here?
Answer: Its value is “failed to indicate drug inhibition”.

Question: And the “Lp-PLA2 inhibition measured by Auto PAF AH assay” value ([2]; six drug-treated human subjects, 120-240 mg in vivo)?
Answer: The value was “not apparent”.

Question: Which Km ([2]; plasma as the enzyme source, Auto PAF AH protocol) does the source give for `CCCCCCCCCCCCCC(=O)OCC(COP(=O)([O-])OCC[N+](C)(C)C)OC(=O)CCC(=O)Oc1ccc([N+](=O)[O-])cc1` (stereo not shown) [substrate, reference compound] here?
Answer: The Km was ~200 µM and 200 µM.

B1: hrLp-PLA2: recombinant human Lp-PLA2 protein generated in-house (protein, UniProt Q13093 22-441, looked up)
Platelet-activating factor …: FDWQYINPVAHMKSSAWVNKIQVLMAAASFGQTKIPRGNGPYSVGCTDLMFDHTNKGTFLRLYYPSQDNDRLDTLWIPNKEYFWGLSKFLGTHWLMGNILRLLFGSMTTPANWNSPLRPGEKYPLVVFSHGLGAFRTLYSAIGIDLASHGFIVAAVEHRDRSASATYYFKDQSAAEIGDKSWLYLRTLKQEEETHIRNEQVRQRAKECSQALSLILDIDHGKPVKNALDLKFDMEQLKDSIDREKIAVIGHSFGGATVIQTLSEDQRFRCGIALDAWMFPLGDEVYSRIPQPLFFINSEYFQYPANIIKMKKCYSPDKERKMITIRGSVHQNFADFTFATGKIIGHMLKLKGDIDSNVAIDLSNKASLAFLQKHLGLHKDFDQWDCLIEGDDENLIPGTNINTTNQHIMLQNSSGIEKYN
Question: With B1 as the molecule, how does the Activity ([3]; hrLp-PLA2 4.88 ng/mL, […] Substrate/45 μL) read?
Answer: Its Activity is 2.71 nmol/min/mL.

Question: What about the Activity ([3]; hrLp-PLA2 9.77 ng/mL, […] Substrate/45 μL) of the same molecule?
Answer: The Activity was 5.13 nmol/min/mL.

Question: What about the Activity ([3]; hrLp-PLA2 19.53 ng/mL, […] Substrate/45 μL) of the same molecule?
Answer: Its Activity is 9.27 nmol/min/mL.

Question: And the Activity ([3]; hrLp-PLA2 39.06 ng/mL, […] Substrate/45 μL)?
Answer: The Activity was 17.81 nmol/min/mL.

Question: What about the Activity ([3]; hrLp-PLA2 78.13 ng/mL, […] Substrate/45 μL) of the same molecule?
Answer: The Activity was 30.16 nmol/min/mL.

Question: What about the Activity ([3]; hrLp-PLA2 156.25 ng/mL, […] Substrate/45 μL) of the same molecule?
Answer: Its Activity is 51.62 nmol/min/mL.

Question: And the Activity ([3]; hrLp-PLA2 312.50 ng/mL, […] Substrate/45 μL)?
Answer: Its Activity is 84.14 nmol/min/mL.

Question: What about the Activity ([3]; hrLp-PLA2 625.00 ng/mL, […] Substrate/45 μL) of the same molecule?
Answer: The Activity was 109.44 nmol/min/mL.

Question: What about the Activity ([3]; hrLp-PLA2 1250.00 ng/mL, […] Substrate/45 μL) of the same molecule?
Answer: The Activity was 93.90 nmol/min/mL.

Question: What about the Activity ([3]; hrLp-PLA2 1650 ng/ml, 25 uL assayed) of the same molecule?
Answer: Its Activity is 30.0 nmol/min/mL.

Question: And the Activity ([3]; hrLp-PLA2 3300 ng/ml, 25 uL assayed)?
Answer: The Activity was 69.7 nmol/min/mL.

Question: And the Activity ([3]; hrLp-PLA2 6600 ng/ml, 25 uL assayed)?
Answer: The Activity was 169.0 nmol/min/mL.

Question: And the Activity ([3]; hrLp-PLA2 14666 ng/ml, 25 uL assayed)?
Answer: Its Activity is 413.7 nmol/min/mL.

Question: What about the “Activity (assay dynamic range)” value ([3]; reaction time used for calculation 30 sec-0) of the same molecule?
Answer: Its value is 3.4 to 210 nmol/min/mL.

Question: And the “Activity (assay dynamic range)” value ([3]; reaction time used for calculation 1 min-0)?
Answer: Its value is 3.2 to 196.5 nmol/min/mL.

B2: Purified hLp-PLA2 (protein, UniProt Q13093 22-441, looked up)
Platelet-activating factor …: FDWQYINPVAHMKSSAWVNKIQVLMAAASFGQTKIPRGNGPYSVGCTDLMFDHTNKGTFLRLYYPSQDNDRLDTLWIPNKEYFWGLSKFLGTHWLMGNILRLLFGSMTTPANWNSPLRPGEKYPLVVFSHGLGAFRTLYSAIGIDLASHGFIVAAVEHRDRSASATYYFKDQSAAEIGDKSWLYLRTLKQEEETHIRNEQVRQRAKECSQALSLILDIDHGKPVKNALDLKFDMEQLKDSIDREKIAVIGHSFGGATVIQTLSEDQRFRCGIALDAWMFPLGDEVYSRIPQPLFFINSEYFQYPANIIKMKKCYSPDKERKMITIRGSVHQNFADFTFATGKIIGHMLKLKGDIDSNVAIDLSNKASLAFLQKHLGLHKDFDQWDCLIEGDDENLIPGTNINTTNQHIMLQNSSGIEKYN
Question: What does the source list for B2?
Answer: Activity ([4]; Purified hLp-PLA2 6.25 ng/ml): 2.47 nmol/min/mL; Activity ([4]; Purified hLp-PLA2 12.50 ng/ml): 5.06 nmol/min/mL; Activity ([4]; Purified hLp-PLA2 50.00 ng/ml): 25.68 nmol/min/mL; Activity ([4]; Purified hLp-PLA2 100.00 ng/ml): 54.34 nmol/min/mL; Activity ([4]; Purified hLp-PLA2 200.00 ng/ml): 119.34 nmol/min/mL; Activity ([4]; Purified hLp-PLA2 400.00 ng/ml): 212.95 nmol/min/mL; Activity ([4]; Purified hLp-PLA2 600.00 ng/ml): 273.60 nmol/min/mL; Activity ([4]; Purified hLp-PLA2 800.00 ng/ml): 324.85 nmol/min/mL; Activity ([4]; Purified hLp-PLA2 1000.00 ng/ml): 338.51 nmol/min/mL
